Experimental data from the supplement of paper PMC10724198.
± gives the standard deviation of the averaged measurements.

Tests used:
[1] = system: Saccharomyces cerevisiae; assay: protein stability index of tFT-peptide fusion (C-terminal peptide) (PSI (0-1 scale)); higher = more stable (slower turnover)
Procedure: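 MPS profiling in S. cerevisiae of the tFT-X12 degron library: putative degron peptides plus stable controls, 12 aa, fused to the C-terminus of a sfGFP-mCherry timer. Cells are FACS-sorted into 8 mCherry/sfGFP bins and deep-sequenced. PSI runs from 0 (unstable) to 1 (stable). Backgrounds are wild type, das1Δ and doa10Δ at 30 °C, and wild type, das1Δ, cdc34-1 and cdc53-1 at 37 °C; 2-3 technical replicates each.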

[2] = system: Saccharomyces cerevisiae; assay: as above; settings: genetic background: wild type; temperature: 30 C
[3] = genetic background: cdc34-1, temperature: 37 C
[4] = genetic background: cdc53-1, temperature: 37 C
[5] = genetic background: das1 deletion, temperature: 30 C
[6] = genetic background: das1 deletion, temperature: 37 C
[7] = genetic background: doa10 deletion, temperature: 30 C
[8] = genetic background: wild type, temperature: 30 C
[9] = genetic background: wild type, temperature: 37 C
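Also: PSI is a weighted mean of sequencing reads over stability bins, variants kept only with over 10 reads, mCherry proximal and sfGFP distal, peptide attached via GGGS linker.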

Row | Sequence | protein stability index [1, 3] | protein stability index [1, 4] | protein stability index [1, 5] | protein stability index [1, 6] | protein stability index [1, 7] | protein stability index [1, 8] | protein stability index [1, 9] | protein stability index [2]
1 | KLRIVYAKVVCS | 0.547 ± 0.044 | 0.592 ± 0.025 | 0.511 ± 0.029 | 0.613 ± 0.0069 | 0.247 ± 0.019 | 0.274 ± 0.015 | 0.407 ± 0.067 | 0.348 ± 0.055
2 | KSEKTYTYQVIQ | 0.682 ± 0.022 | 0.749 ± 0.027 | 0.622 ± 0.023 | 0.7159 ± 0.0055 | 0.329 ± 0.031 | 0.37 ± 0.027 | 0.5757 ± 0.005 | 0.453 ± 0.0059
3 | KVALWRRGVLAA | 0.363 ± 0.028 | 0.387 ± 0.013 | 0.257 ± 0.037 | 0.476 ± 0.011 | 0.142 ± 0.0064 | 0.161 ± 0.02 | 0.286 ± 0.0099 | 0.231 ± 0.007
4 | LCGYVGVVVCLV | 0.282 ± 0.012 | 0.307 ± 0.027 | 0.243 ± 0.029 | 0.433 ± 0.0061 | 0.175 ± 0.0034 | 0.209 ± 0.021 | 0.352 ± 0.015 | 0.307 ± 0.019
5 | LCIRHFRLLELL | 0.5607 ± 0.0046 | 0.72 ± 0.014 | 0.642 ± 0.033 | 0.728 ± 0.041 | 0.165 ± 0.011 | 0.167 ± 0.016 | 0.268 ± 0.021 | 0.276 ± 0.0069
6 | LCSYSTIPLRLY | 0.619 ± 0.034 | 0.726 ± 0.013 | 0.614 ± 0.019 | 0.695 ± 0.022 | 0.188 ± 0.0019 | 0.231 ± 0.021 | 0.48 ± 0.013 | 0.329 ± 0.035
7 | LCWASLLIVYLP | 0.397 ± 0.014 | 0.4614 ± 0.0036 | 0.311 ± 0.03 | 0.50382 ± 0.0004 | 0.27 ± 0.017 | 0.278 ± 0.032 | 0.463 ± 0.0039 | 0.392 ± 0.011
8 | LEYCLATYLSAC | 0.3382 ± 0.00047 | 0.435 ± 0.013 | 0.25 ± 0.035 | 0.43854 ± 0.00041 | 0.211 ± 0.0025 | 0.248 ± 0.016 | 0.4386 ± 0.00068 | 0.378 ± 0.0073
9 | LFFSFLFLATRC | 0.248 ± 0.012 | 0.209 ± 0.018 | 0.254 ± 0.045 | 0.39184 ± 0.00039 | 0.2246 ± 0.00043 | 0.193 ± 0.019 | 0.311 ± 0.016 | 0.236 ± 0.037
10 | LFFVCSGVVFSF | 0.514 ± 0.052 | 0.5482 ± 0.0011 | 0.407 ± 0.03 | 0.5829 ± 0.0055 | 0.38 ± 0.01 | 0.384 ± 0.031 | 0.558 ± 0.011 | 0.507 ± 0.04
11 | LFGFLCVVMCCG | 0.533 ± 0.014 | 0.521 ± 0.0067 | 0.44 ± 0.02 | 0.511 ± 0.03 | 0.412 ± 0.023 | 0.4422 ± 0.00067 | 0.485 ± 0.034 | 0.434 ± 0.028
12 | LFLFFFLPPLLF | 0.4247 ± 0.0027 | 0.407 ± 0.0056 | 0.373 ± 0.025 | 0.484 ± 0.021 | 0.439 ± 0.018 | 0.366 ± 0.009 | 0.461 ± 0.026 | 0.446 ± 0.028
13 | LFLSFLLLYFRP | 0.269 ± 0.019 | 0.219 ± 0.022 | 0.311 ± 0.037 | 0.4223 ± 0.0015 | 0.439 ± 0.021 | 0.313 ± 0.015 | 0.402 ± 0.0086 | 0.351 ± 0.039
14 | LFMRGEDEMFSV | 0.722 ± 0.052 | 0.758 ± 0.024 | 0.658 ± 0.01 | 0.7826 ± 0.0013 | 0.668 ± 0.012 | 0.672 ± 0.022 | 0.766 ± 0.036 | 0.746 ± 0.018
15 | LFPLFTLIFVHL | 0.224 ± 0.016 | 0.212 ± 0.017 | 0.265 ± 0.023 | 0.4169 ± 0.0011 | 0.119 ± 0.025 | 0.115 ± 0.019 | 0.1696 ± 0.00078 | 0.1989 ± 0.00028
16 | LFTRSIRNLKSL | 0.653 ± 0.057 | 0.7269 ± 0.007 | 0.664 ± 0.0086 | 0.738 ± 0.02 | 0.303 ± 0.0033 | 0.291 ± 0.0074 | 0.4521 ± 0.0027 | 0.452 ± 0.033
17 | LFVFVISSSSFP | 0.442 ± 0.0068 | 0.539 ± 0.035 | 0.321 ± 0.025 | 0.553 ± 0.0059 | 0.291 ± 0.022 | 0.306 ± 0.025 | 0.503 ± 0.015 | 0.395 ± 0.04
18 | LFWCCVGLSVWR | 0.367 ± 0.063 | 0.474 ± 0.026 | 0.318 ± 0.022 | 0.5026 ± 0.0031 | 0.278 ± 0.0092 | 0.31 ± 0.016 | 0.494 ± 0.023 | 0.43 ± 0.011
19 | LFWPPCYLFFCL | 0.446 ± 0.034 | 0.508 ± 0.052 | 0.473 ± 0.039 | 0.677 ± 0.045 | 0.393 ± 0.03 | 0.324 ± 0.027 | 0.437 ± 0.024 | 0.389 ± 0.031
20 | LFWTLSKYLIIC | 0.284 ± 0.015 | 0.42 ± 0.024 | 0.34 ± 0.04 | 0.491 ± 0.011 | 0.0759 ± 0.0053 | 0.108 ± 0.013 | 0.159 ± 0.083 | 0.135 ± 0.079

Row | Sequence | protein stability index [1, 3] | protein stability index [1, 4] | protein stability index [1, 5] | protein stability index [1, 6] | protein stability index [1, 7] | protein stability index [1, 8] | protein stability index [1, 9] | protein stability index [2]
21 | LGFFIFSFLILK | 0.0638 ± 0.017 | 0.0569 ± 0.025 | 0.189 ± 0.031 | 0.235 ± 0.011 | 0.263 ± 0.017 | 0.124 ± 0.036 | 0.221 ± 0.057 | 0.25 ± 0.015
22 | LGFHFFFTLIFF | 0.284 ± 0.054 | 0.274 ± 0.0087 | 0.279 ± 0.04 | 0.4 ± 0.031 | 0.4518 ± 0.0032 | 0.305 ± 0.039 | 0.37 ± 0.042 | 0.381 ± 0.03
23 | LGLLIFQWARVL | 0.302 ± 0.015 | 0.5 ± 0.0084 | 0.405 ± 0.026 | 0.553 ± 0.0056 | 0.0666 ± 0.012 | 0.0808 ± 0.016 | 0.092 ± 0.0037 | 0.12 ± 0.035
24 | LGVVVGGVRGVG | 0.43 ± 0.04 | 0.49 ± 0.0086 | 0.461 ± 0.012 | 0.505 ± 0.0054 | 0.467 ± 0.012 | 0.46 ± 0.025 | 0.4913 ± 0.0033 | 0.448 ± 0.045
25 | LHRLRFTLVQVS | 0.171 ± 0.0037 | 0.196 ± 0.036 | 0.228 ± 0.032 | 0.32664 ± 0.00013 | 0.127 ± 0.018 | 0.163 ± 0.021 | 0.2 ± 0.0028 | 0.223 ± 0.022
26 | LIAPSACNLFLF | 0.639 ± 0.04 | 0.7535 ± 0.0061 | 0.682 ± 0.015 | 0.7584 ± 0.0066 | 0.288 ± 0.0042 | 0.308 ± 0.018 | 0.5569 ± 0.005 | 0.412 ± 0.032
27 | LIRDLLYMAVLV | 0.249 ± 0.015 | 0.258 ± 0.016 | 0.295 ± 0.019 | 0.357 ± 0.018 | 0.32 ± 0.0083 | 0.281 ± 0.039 | 0.329 ± 0.0044 | 0.38 ± 0.019
28 | LISRLVLVFVIP | 0.3804 ± 0.00059 | 0.443 ± 0.012 | 0.287 ± 0.032 | 0.529 ± 0.0056 | 0.284 ± 0.021 | 0.272 ± 0.026 | 0.4696 ± 0.0045 | 0.38 ± 0.011
29 | LIVCVKAITIVS | 0.0266 ± 0.0046 | 0.0452 ± 0.011 | 0.0357 ± 0.0096 | 0.0917 ± 0.019 | 0.0226 ± 0.0029 | 0.0194 ± 0.0031 | 0.0521 ± 0.031 | 0.0363 ± 0.015
30 | LKCFLVLTFWFS | 0.187 ± 0.045 | 0.231 ± 0.012 | 0.222 ± 0.028 | 0.367 ± 0.018 | 0.184 ± 0.021 | 0.194 ± 0.027 | 0.3 ± 0.0095 | 0.263 ± 0.0049
31 | LLHFVLYFLSCT | 0.51 ± 0.057 | 0.548 ± 0.0012 | 0.442 ± 0.03 | 0.5554 ± 0.0051 | 0.42 ± 0.03 | 0.434 ± 0.01 | 0.549 ± 0.012 | 0.456 ± 0.018
32 | LLHQSVHSHIPP | 0.637 ± 0.0097 | 0.72 ± 0.013 | 0.638 ± 0.022 | 0.733 ± 0.021 | 0.641 ± 0.018 | 0.641 ± 0.024 | 0.6911 ± 0.0067 | 0.534 ± 0.052
33 | LLILSLLVLSSR | 0.244 ± 0.022 | 0.348 ± 0.024 | 0.241 ± 0.021 | 0.42 ± 0.0046 | 0.2034 ± 0.00063 | 0.229 ± 0.036 | 0.37 ± 0.011 | 0.326 ± 0.0076
34 | LLLCVVLVSVFG | 0.0374 ± 0.0057 | 0.0791 ± 0.044 | 0.122 ± 0.025 | 0.174 ± 0.02 | 0.0854 ± 0.0049 | 0.102 ± 0.023 | 0.134 ± 0.027 | 0.18 ± 0.0041
35 | LLLFSFAALANF | 0.539 ± 0.059 | 0.545 ± 0.017 | 0.398 ± 0.022 | 0.5592 ± 0.0013 | 0.245 ± 0.0066 | 0.283 ± 0.018 | 0.466 ± 0.02 | 0.347 ± 0.0064
36 | LLLFTPFYLLLR | 0.0987 ± 0.033 | 0.0767 ± 0.0017 | 0.218 ± 0.021 | 0.27 ± 0.0065 | 0.525 ± 0.015 | 0.188 ± 0.037 | 0.219 ± 0.016 | 0.305 ± 0.011
37 | LLLPVFRFFFVN | 0.468 ± 0.032 | 0.632 ± 0.065 | 0.554 ± 0.026 | 0.672 ± 0.021 | 0.0849 ± 0.023 | 0.109 ± 0.007 | 0.143 ± 0.0049 | 0.203 ± 0.04
38 | LLRFFPCFLGVN | 0.653 ± 0.018 | 0.6962 ± 0.0039 | 0.657 ± 0.043 | 0.701 ± 0.012 | 0.43 ± 0.023 | 0.425 ± 0.032 | 0.579 ± 0.021 | 0.484 ± 0.022
39 | LLTAARAQLFAV | 0.65 ± 0.0086 | 0.704 ± 0.029 | 0.578 ± 0.016 | 0.7 ± 0.022 | 0.457 ± 0.013 | 0.477 ± 0.019 | 0.6168 ± 0.0014 | 0.503 ± 0.046
